Test [1] addresses Human BTN3A, membrane displayed on cells (human PBMCs, Daudi cells, SKOV-3 cells) (human), O00481. Put plainly: cell-based or functional assay.
In test [2] the target is T1, Human BTN3A1 His-tagged antigen (Sino Biological Cat. No. 15973-H08H) (human, UniProt O00481 30-254).
T1 construct: Bought recombinant protein; also called recombinant human BTN3A1-His; not shown: His tag
Put plainly: SPR Biacore T200, single cycle kinetics, BTN3A1-His captured on anti-His CM5 chip, Fab as analyte, 1:1 model, 25 C. How it is done:
All single cycle kinetic experiments were run at 25° C. with HBS-P+ running buffer (pH 7.4) containing 0.1% BSA (GE Healthcare, Little Chalfont, UK).
Human BTN3A1 His-tagged antigen (Sino Biological, Beijing, China) was diluted in running buffer to a final concentration of 0.4 μg/mL. At the start of each cycle, BTN3A1-His was captured onto Fc2 of CM5 sensor chip pre-coupled using a His capture kit (GE Healthcare, Little Chalfont, UK) with standard amine chemistry at a flow rate of 10 μL/min. An immobilization level (RL) of ˜17 RU or 8 RU, the different theoretical values to obtain a RMax of ˜25 RU was used for the analytes Fab and F(ab′)₂ respectively. The surface was then allowed to stabilize. Single cycle kinetics data was obtained with the purified samples (Fab and F(ab′)₂)) at a flow rate of 40 μL/min to minimize any potential mass transfer effects. The signal from the reference channel Fc1 (no antigen capture) was subtracted from that of Fc2 to correct for differences in non-specific binding to the reference surface. […] The signal for BTN3A1-His blank runs (no analyte) were subtracted to correct for differences in surface stability. The association phase for the five injections of increasing concentrations was monitored for 240 seconds each time and a single dissociation phase was measured for 2000 seconds following the last injection of analyte. Regeneration of the chip surface was conducted using two injections of 10 mM glycine-HCL pH 1.5 followed by a stabilization period of 240 seconds.
Raw sensorgrams were fitted with a 1:1 model for Fab samples and with a bivalent analyte model for F(ab′)₂ samples in agreement with the different valences of the analytes. Kinetic constants obtained are detailed in Table 1 and Table 2.
A general note: In SPR one partner is held on a chip, and binding of the other changes the refractive index at the surface.

The target in test [3] is T1, Human BTN3A1 His-tagged antigen (Sino …). The test is described as follows: SPR Biacore T200, single cycle kinetics, BTN3A1-His captured on anti-His CM5 chip, IgG as analyte, bivalent analyte model (ka 1), 25 C. As to the method:
(§1) Human BTN3A1 His-tagged antigen (Sino Biological, Beijing, China) was diluted in running buffer to a final concentration of 0.4 μg/mL. At the start of each cycle, human BTN3A1-His was captured onto Fc2 of CM5 sensor chip pre-coupled using a His capture kit (GE Healthcare, Little Chalfont, UK) with standard amine chemistry at a flow rate of 10 μL/min. An immobilization level (RL) of ˜34 RU, 16 RU or 11 RU, the different theoretical values to obtain a RMax of ˜50 RU was used for the analytes Fab, F(ab′)₂ and IgG respectively. The surface was then allowed to stabilize. Single cycle kinetic data was obtained with the purified samples (Fab, F(ab′)₂ and IgG) at a flow rate of 40 μL/min to minimize any potential mass transfer effects. The signal from the reference channel Fc1 (no antigen capture) was subtracted from that of Fc2 to correct for differences in non-specific binding to the reference surface. The signal for human BTN3A1-His blank runs (no analyte) were subtracted to correct for differences in surface stability. The association phase for the five injections of increasing concentrations was monitored for 240 seconds each time and a single dissociation phase was measured for 1400 seconds following the last injection of analyte. Regeneration of the chip surface was conducted using two injections of 10 mM glycine-HCL pH 1.5 followed by a stabilization period of 240 seconds.

The target is the same in test [4]. The test is described as follows: BLI OctetRed96, antibody loaded on FAB2G (anti-human CH1) sensors, human BTN3A1 as analyte 1.87-60 nM, 1:1 model, 30 C. As to the method: (§2) All runs (including loading, equilibration, association/dipping of sensors into analyte, dissociation and regeneration) were performed in black 96-well plates (Greiner) at 30° C. with shaking 1000 rpm using an OctetRed96 (ForteBio). […] The association of antibody or fragments with various concentrations of human BTN3A1 (60, 30, 15, 7.5, 3.75 and 1.87 nM) was monitored for 300 s, and the dissociation was followed for typically 500 s in kinetic buffer. Fitting of the data and constant measurements were performed with the Octet Red system software (version 7.1) using the 1:1 model. A control with an irrelevant antibody was used in order to assess the absence of non-specific binding of the target protein.

Test [5] has the same target. Put plainly: SPR Biacore T200, single cycle kinetics, BTN3A1-His captured on anti-His CM5 chip, IgG as analyte, bivalent analyte model (ka 2), 25 C. How it is done: as §1
Test [6] has the same target. Put plainly: SPR Biacore T200, single cycle kinetics, BTN3A1-His captured on anti-His CM5 chip, IgG as analyte, bivalent analyte model (kd 1), 25 C. How it is done: as §1
Test [7] shares this target. Put plainly: SPR Biacore T200, single cycle kinetics, BTN3A1-His captured on anti-His CM5 chip, IgG as analyte, bivalent analyte model (kd 2), 25 C. As to the method:
as §1

The target is the same in test [8]. Put plainly: SPR Biacore T200, multi-cycle kinetics, antibody captured on Protein A, BTN3A1-His as analyte, 1:1 model. How it is done: Purified antibodies were diluted to a concentration of 2 μg/mL in 2% BSA/PBS. At the start of each cycle, each antibody was captured on the Protein A at a density (RL) of 146.5 RU (theoretical value to obtain an RMax of ˜50 RU). Following capture, the surface was allowed to stabilize before injection of the BTN3A1 antigen (Sino Biological cat. no. 15973-H08H). BTN3A1 was titrated in 0.1% BSA/HBS-P+(running buffer) in a two-fold dilution range from 12 to 0.375 nM. The association phase was monitored for 360 seconds and the dissociation phase for 45 minutes (2700 seconds). Kinetic data was obtained using a flow rate of 40 μL/min to minimize any potential mass transfer effects. Regeneration of the Protein A surface was conducted using two injections of 10 mM glycine-HCL pH 1.5 at the end of each cycle. Two blanks (no BTN3A1) and a repeat of a single concentration of the analyte were performed for each tested antibody to check the stability of the surface and analyte over the kinetic cycles. The chimeric antibody was run twice. The signal from the reference channel Fc1 was subtracted from that of Fc2, Fc3 and Fc4 to correct for differences in non-specific binding to a reference surface. Additionally, blank runs were subtracted for each Fc to correct any antigen-independent signal variation, such as drift. […]

Test [9] has the same target. The test is described as follows: competition ELISA on coated BTN3A1-His, competitor murine 103.2. How it is done:
Chimeric (VH0/Vκ0) and irrelevant human IgG4 (S241P, L248E) were tested on each plate for comparison.
BTN3A1 was diluted in 1×PBS to 0.5 μg/ml and 100 μL/well was coated overnight at 4° C. on a 96-well ELISA plate. The following day, the plate was washed 3× with 1×PBS/0.05% Tween (PBS-T) and blocked with 200 μL of 2% milk/PBS for 1 hour at room temperature. […] After washing the Nunc ELISA plate 3× with PBS-T, 100 μL of murine/test antibody mix was added to the ELISA plate. After one hour incubation at room temperature, the plate was washed 3 times with PBS-T and 100 μL of anti-mouse Fc HRP-labelled secondary antibody (Sigma, Dorset, UK) diluted 1:1000 in blocking buffer was applied for 1 hour at room temperature to detect bound murine antibody. The plate was washed 3 times with PBS-T following which 100 μL of TMB substrate was added and incubated for five minutes at room temperature. The reaction was stopped with 100 μl of 3.0 M hydrochloric acid and absorbance was read immediately using a Dynex plate reader at 450 nm.

For test [10] the target is unchanged. The test is described as follows: BLI OctetRed96, Fab loaded on FAB2G (anti-human CH1) sensors, human BTN3A1 as analyte 1.87-60 nM, 1:1 model, 30 C. How it is done:
as §2

Test [11] shares this target. The test is described as follows: SPR Biacore T200, single cycle kinetics, BTN3A1-His captured on anti-His CM5 chip, Fab as analyte, 1:1 model, 25 C. As to the method:
as §1
This is another data set of the same source.

Bounds are passed on as bounds.

T1 sequence (O00481 30-254 limits assumed): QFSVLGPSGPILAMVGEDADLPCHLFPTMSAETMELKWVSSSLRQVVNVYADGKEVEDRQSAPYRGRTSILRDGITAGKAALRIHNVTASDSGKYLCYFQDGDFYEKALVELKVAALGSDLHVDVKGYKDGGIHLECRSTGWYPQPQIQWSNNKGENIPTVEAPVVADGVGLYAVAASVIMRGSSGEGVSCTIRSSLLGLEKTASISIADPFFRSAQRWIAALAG

B1: Chimeric 103.2 antibody (VH0/Vκ0), full-length IgG (antibody, V domains shown)
VH: QVQMQQSGAEVVRPGTSVKVSCKASGYAFTSYLIHWIKQRPGQGLEWIGVINPRSGDSHYNEKFKDRTTLTADQSSSTAYMQLSSLTSDDSAVYFCARSDYGAYWGQGTLVTVSS
VL: DIVLTQSPVTLSVTPGDSVSLSCRASQSISNNLHWYRQKSHESPRLLIKYASQSIFGIPSRFSGSGSGTEFTLSINSVETEDFGIYFCQQSNSWPHTFGTGTKLELK
As for B1, the % CD107+ of Vγ9Vδ2 T cells, co-culture with Daudi cells, antibody at 10 µg/mL in [1] was found to be 6.96%.

B2: Chimeric 103.2 Fab fragment (Fab, V domains shown)
VH: B1 VH
VL: B1 VL
B2: the % CD107+ of Vγ9Vδ2 T cells, co-culture with Daudi cells, fragment at 10 µg/mL in test [1] came out at 66.7%. In addition, in [2], binding was characterised by a dissociation constant (Kd) of 1.42 nM; the dissociation rate constant (koff) (in general, the first-order rate constant of dissociation) came out at 0.000782 s⁻¹; the kon (in general, the second-order rate constant of association) is 551000 M⁻¹ s⁻¹.

B3: Humanized 103.2 (hu103.2) full-length antibody: 103.2 VH4/Vκ4 IgG1 L247F L248E P350S dK (antibody, V domains shown)
VH: QVQMQQSGAEVKKPGASVKVSCKASGYAFTSYLIHWIKQRPGQGLEWIGVINPRSGDSHYNEKFKDRVTMTADQSISTAYMELSRLRSDDTAVYYCARSDYGAYWGQGTLVTVSS
VL: EIVLTQSPATLSVSPGERATLSCRASQSISNNLHWYQQKPGQAPRLLIKYASQSAFGIPARFSGSGSGTEFTLTISSLQSEDFAVYFCQQSNSWPHTFGQGTKLEIK
notes: also called hu103.2 (IgG)
In test [1], B3 yielded a % CD25+ of Vγ9Vδ2 T cells within PBMCs, 67 nM, 5 days of 7.9% and a % CTV dilution of Vγ9Vδ2 T cells within PBMCs, 67 nM, 5 days of 9.5%. The on-rate constant (kon) in [3] was found to be 430000 M⁻¹ s⁻¹. Moreover, in [4], the affinity, expressed as Kd, was 1.44 nM; the dissociation rate constant (koff) stood at 0.00028 s⁻¹; the kon is 194000 M⁻¹ s⁻¹. Moreover, in [5], the “ka 2” value is 9.28 M⁻¹ s⁻¹. This molecule also came in with a dissociation rate constant (koff) in test [6] of 0.000352 s⁻¹. The “kd 2” value in test [7] was found to be 17.6 s⁻¹.

B4: 103.2 humanized variant VH4/Vκ4 (IgG4 format of the humanization screen) (antibody, V domains shown)
VH: B3 VH
VL: B3 VL
notes: It has the same variable regions as hu103.2, which is the later IgG1 Fc-silent construct
For the molecule B4, in [8], the “affinity (KD) relative to chimeric” value was ≤ 2 fold of 103.2 chimeric (VH0/Vκ0). Further, in test [9], the “IC50 relative to chimeric” value is ≤ 2 fold of chimeric (VH0/Vκ0).

B5: Humanized 103.2 (hu103.2) Fab fragment (Fab, V domains shown)
VH: B3 VH
VL: B3 VL
In test [1], B5 displayed a % CD25+ of Vγ9Vδ2 T cells within PBMCs, 67 nM, 5 days of 32.7%; a % CTV dilution of Vγ9Vδ2 T cells within PBMCs, 67 nM, 5 days of 45.3%; an EC50 (nM) in Vγ9Vδ2 T cell degranulation assay (CD107) against Daudi of 0.91 nM; an EC50 (nM) in Vγ9Vδ2 T cell degranulation assay (CD107) against SKOV-3 of 0.08 nM. Also, in test [10], the equilibrium dissociation constant (Kd) – broadly, the constant that tells how readily two partners part at equilibrium – was 2.43 nM; the koff stood at 0.000419 s⁻¹; the on-rate constant (kon) came out at 172000 M⁻¹ s⁻¹. In test [11], this molecule displayed a Kd of 1.26 nM, an off-rate constant (koff) of 0.00138 s⁻¹ and a kon of 1.1e+06 M⁻¹ s⁻¹.

The values above are taken from patent US20220073619A1 (IMCHECK THERAPEUTICS, published 2022).
